{"source": "paper PMC12678314", "about": "“Redox regulation of glutamate-1-semialdehyde aminotransferase modulates the synthesis of 5-aminolevulinic acid in Arabidopsis” (Frontiers in Plant Science, 2025)", "proteins": {"B1": {"name": "recombinant His-tagged Arabidopsis glutamate-1-semialdehyde aminotransferase 1, wild type (enzyme)", "chain": "not shown", "notes": "Arabidopsis thaliana GSAAT1 (AtGSA1, AT5G63570), mature protein without the transit peptide 1-38 according to UniProt P42799; pET-28a(+); the methods remove 1-38; also called His-GSAAT; His-GSAATAt; source: E. coli Rosetta, purified (Ni-NTA); not shown: His6, N-terminal, kept"}}, "target": "the molecule itself", "assay": "native gel or EMSA; purified His-GSAATAt (300 µM), no pretreatment, non-reducing/non-denaturing polyacrylamide gel; dimer to monomers", "data": [{"protein": "B1", "values": [{"measurement": "stoichiometry N", "result": 2}]}]}
